Experimental findings from the Immune Epitope Database (IEDB) are described below.

One assay addresses HLA-A*02:01. Briefly: IEDB peptide-MHC binding, purified MHC/competitive/fluorescence; filed as Kd, often an IC50 or EC50 that approximates it; ≥ and ≤ were set here for values at or beyond the usual limits of such assays.
The target of the next assay is HLA-A*32:01. Briefly: IEDB peptide-MHC binding, purified MHC/competitive/radioactivity; filed as Kd, often an IC50 or EC50 that approximates it; ≥ and ≤ were set here for values at or beyond the usual limits of such assays.
The target of a further assay is HLA-A*01:01. The description is as above.
The next assay deals with HLA-A*26:01. The description is as above.
A further assay concerns the target HLA-A*29:02. The description is as above.
The target of the next assay is HLA-A*30:01. The assay is described as above.
The next assay deals with HLA-A*30:02. The assay is described as above.
The target of the next assay is HLA-A*23:01. The assay is described as above.
The next assay concerns the target HLA-A*24:02. Described as above.
The next assay concerns the target HLA-B*40:01. The description is as above. The conditions noted are these: source organism: Dengue virus 2 Jamaica/1409/1983.
A further assay has as its target HLA-B*08:01. Described as above. As to conditions: source organism: Vaccinia virus WR.
Setting [1] is: source organism: Vaccinia virus Copenhagen.
[2] abbreviates: source organism: Mammarenavirus guanaritoense.
The mark [3] stands for this setting: source organism: Mammarenavirus brazilense.
The mark [4] stands for this setting: source organism: SARS coronavirus Tor2.
[5] abbreviates: source organism: Vaccinia virus WR.
The mark [6] stands for this setting: source organism: Lymphocytic choriomeningitis virus (strain Armstrong).
Setting [7] is: source organism: Mammarenavirus juninense.

Turning to AMLNGLIYV, in the assay with HLA-A*02:01 (source organism: Variola virus), the Kd was found to be 1.3 nM.

In the case of AQDFQSLTI, the Kd with HLA-A*32:01 (setting [1]) stood at 67.6 nM.

For CSKILDLCY, the Kd in the assay with HLA-A*01:01 (setting [2]) was 53.1 nM; with HLA-A*26:01 (setting [2]) it was at least 54600 nM; with HLA-A*29:02 (setting [2]) it was 3620 nM; with HLA-A*30:01 (setting [2]), 14900 nM; with HLA-A*30:02 (setting [2]), 664 nM; with HLA-A*32:01 (setting [2]) it was at least 50900 nM.

Take DEALRGFLLY: the Kd in the assay with HLA-A*01:01 (setting [3]) is 14800 nM; in the assay with HLA-A*23:01 (setting [3]), 5860 nM; with HLA-A*24:02 (setting [3]), at least 37500 nM; with HLA-A*26:01 (setting [3]), at least 69700 nM; with HLA-A*29:02 (setting [3]), at least 59100 nM; in the assay with HLA-A*30:02 (setting [3]), at least 69700 nM.

Turning to DEEPMELDY, the Kd is 2000 nM in the assay with HLA-A*01:01 (setting [4]); at least 59000 nM in the assay with HLA-A*23:01 (setting [4]); at least 77600 nM in the assay with HLA-A*24:02 (setting [4]); at least 73600 nM with HLA-A*26:01 (setting [4]); 1130 nM with HLA-A*29:02 (setting [4]); at least 42000 nM with HLA-A*30:02 (setting [4]).

As to DHEFVDEFY, the Kd with HLA-A*01:01 (setting [4]) is 262 nM; with HLA-A*23:01 (setting [4]), at least 66200 nM; with HLA-A*24:02 (setting [4]) it was at least 77600 nM; with HLA-A*26:01 (setting [4]) it was 13900 nM; with HLA-A*29:02 (setting [4]), 1170 nM; with HLA-A*30:02 (setting [4]), at least 22500 nM.

With DTVWEVQGY, the Kd is 8020 nM with HLA-A*01:01 (setting [4]); at least 77800 nM with HLA-A*23:01 (setting [4]); at least 77600 nM with HLA-A*24:02 (setting [4]); 1.64 nM with HLA-A*26:01 (setting [4]); 4250 nM with HLA-A*29:02 (setting [4]); 1320 nM with HLA-A*30:02 (setting [4]).

Take EEEEQTLTIL: the Kd with HLA-B*40:01 stood at 10.4 nM.

For ELLNTPYCNY, the Kd is 12300 nM in the assay with HLA-A*01:01 (setting [3]); 275 nM in the assay with HLA-A*26:01 (setting [3]); 837 nM in the assay with HLA-A*29:02 (setting [3]); at least 70400 nM with HLA-A*30:01 (setting [3]); 206 nM with HLA-A*30:02 (setting [3]); at least 39900 nM with HLA-A*32:01 (setting [3]).

With EMVMCGGSLY, the Kd with HLA-A*01:01 (setting [4]) was 468 nM; with HLA-A*23:01 (setting [4]), at least 70000 nM; in the assay with HLA-A*24:02 (setting [4]) it was at least 70300 nM; with HLA-A*26:01 (setting [4]), 19.9 nM; in the assay with HLA-A*29:02 (setting [4]) it was 13.9 nM; with HLA-A*30:02 (setting [4]), 38.1 nM.

For EYADVFHLY, the Kd with HLA-A*01:01 (setting [4]) was at least 26200 nM; in the assay with HLA-A*23:01 (setting [4]), 176 nM; with HLA-A*24:02 (setting [4]) it was 784 nM; with HLA-A*26:01 (setting [4]), 27.7 nM; with HLA-A*29:02 (setting [4]) it was 48.8 nM; in the assay with HLA-A*30:02 (setting [4]) it was 10.8 nM.

For FFQDIPIFF, the Kd in the assay with HLA-A*23:01 (setting [2]) was 10.3 nM; with HLA-A*24:02 (setting [2]), 159 nM; with HLA-A*29:02 (setting [2]), 0.08 nM.

For the sequence GSAKLQWFVE, the Kd in the assay with HLA-A*32:01 (source organism: Dengue virus 3 Martinique/1243/1999) was at least 69900 nM.

GYLKPTTFML: the Kd with HLA-A*01:01 (setting [4]) is at least 28400 nM; with HLA-A*23:01 (setting [4]), 33.6 nM; with HLA-A*24:02 (setting [4]), 103 nM; with HLA-A*26:01 (setting [4]), at least 69700 nM; with HLA-A*29:02 (setting [4]) it was 1020 nM; with HLA-A*30:02 (setting [4]), 5130 nM.

For the sequence IRWYISLSF, the Kd in the assay with HLA-A*32:01 (setting [1]) is 1170 nM.

With ITANPIVTD, the Kd in the assay with HLA-A*32:01 (source organism: Dengue virus 1 Brazil/97-11/1997) worked out at 2420 nM.

On to KTIYLLSLF, for which the Kd in the assay with HLA-A*32:01 (setting [5]) worked out at 10.3 nM.

As for KVINLSELL, the Kd in the assay with HLA-A*23:01 (setting [2]) worked out at 426 nM; with HLA-A*24:02 (setting [2]) it was 17600 nM; with HLA-A*29:02 (setting [2]), 11900 nM.

As to KVNTTIARY, the Kd stood at 1630 nM in the assay with HLA-A*01:01 (setting [6]); 7460 nM in the assay with HLA-A*26:01 (setting [6]); 100 nM with HLA-A*29:02 (setting [6]); 934 nM with HLA-A*30:01 (setting [6]); 5.93 nM in the assay with HLA-A*30:02 (setting [6]); 634 nM with HLA-A*32:01 (setting [6]).

LLFLEDVEP: the Kd with HLA-A*02:01 (source organism: Horsepox virus) is at least 20000 nM.

On to LSHLSLGLI, for which the Kd was 7760 nM with HLA-A*23:01 (setting [3]), at least 21000 nM in the assay with HLA-A*24:02 (setting [3]) and 9100 nM with HLA-A*29:02 (setting [3]).

For LYEQVVMDY, the Kd in the assay with HLA-A*01:01 (setting [4]) was 15100 nM; with HLA-A*23:01 (setting [4]), at least 58200 nM; in the assay with HLA-A*24:02 (setting [4]), at least 40500 nM; with HLA-A*26:01 (setting [4]), at least 22600 nM; with HLA-A*29:02 (setting [4]), 12.2 nM; with HLA-A*30:02 (setting [4]), 173 nM.

With MLMLVNDRLL, the Kd is 11400 nM with HLA-A*23:01 (setting [7]), at least 70300 nM in the assay with HLA-A*24:02 (setting [7]) and at least 20000 nM with HLA-A*29:02 (setting [7]).

Take MLMNHVANF: the Kd in the assay with HLA-A*32:01 (setting [5]) came to 8.28 nM; with HLA-B*08:01, 3.33 nM.

A word on the Kd: it is the equilibrium constant for the complex coming apart.
